B1: recombinant human TRAP1 (mitochondrial Hsp90), wild type (natural protein, UniProt Q12931 60-704, looked up)
chain: STQTAEDKEEPLHSIISSTESVQGSTSKHEFQAETKKLLDIVARSLYSEKEVFIRELISNASDALEKLRHKLVSDGQALPEMEIHLQTNAEKGTITIQDTGIGMTQEELVSNLGTIARSGSKAFLDALQNQAEASSKIIGQFGVGFYSAFMVADRVEVYSRSAAPGSLGYQWLSDGSGVFEIAEASGVRTGTKIIIHLKSDCKEFSSEARVRDVVTKYSNFVSFPLYLNGRRMNTLQAIWMMDPKDVREWQHEEFYRYVAQAHDKPRYTLHYKTDAPLNIRSIFYVPDMKPSMFDVSRELGSSVALYSRKVLIQTKATDILPKWLRFIRGVVDSEDIPLNLSRELLQESALIRKLRDVLQQRLIKFFIDQSKKDAEKYAKFFEDYGLFMREGIVTATEQEVKEDIAKLLRYESSALPSGQLTSLSEYASRMRAGTRNIYYLCAPNRHLAEHSPYYEAMKKKDTEVLFCFEQFDELTLLHLREFDKKKLISVETDIVVDHYKEEKFEDRSPAAECLSEKETEELMAWMRNVLGSRVTNVKVTLRLDTHPAMVTVLEMGAARHFLRMQQLAKTQEERAQLLQPTLEINPRHALIKKLNQLRASEPGLAQLLVDQIYENAMIAAGLVDDPRAMVGRLNELLVKALERH
B2: TRAP1 fused with SpyCatcher at the C-terminus (TRAP1_(SpyCatcher)) (natural protein, human, UniProt Q12931 60-704, looked up)
chain: B1 chain

Legend:
native gel or EMSA = biological target: the molecule itself; test: native gel or EMSA
AUC = biological target: the molecule itself; test: AUC
[1] = biological target: the molecule itself; test: single-particle cryo-EM, 2D class averages

Protein	stoichiometry N (native gel or EMSA)	ratio between dimer and tetramer population (AUC)	stoichiometry N [1]
B1	4	7 dimer:tetramer (7:1)	
B2			4

From article doi:10.1101/2020.11.04.368837 (bioRxiv, 2020)
